{"source": "patent CN115490770A", "about": "(GMAX BIOPHARM HANGZHOU CO LTD, dated 2022)", "key": {"[1]": {"molecular_target": "T1, 人CD3 (human, UniProt P07766 23-207)", "T1 construct": "whole, on cells; Natural CD3 complex on Jurkat T cells (and CIK cells); also called Jurkat细胞表面人CD3分子", "T1 sequence (P07766 23-207)": "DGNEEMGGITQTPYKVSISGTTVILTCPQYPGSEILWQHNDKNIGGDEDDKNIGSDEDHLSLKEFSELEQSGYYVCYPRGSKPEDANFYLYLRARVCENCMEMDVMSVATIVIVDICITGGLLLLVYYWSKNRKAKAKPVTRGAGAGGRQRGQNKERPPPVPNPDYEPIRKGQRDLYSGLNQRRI", "assay": "flow cytometry (FACS) on Jurkat cells, anti-human IgG Fc PE secondary"}, "[2]": {"molecular_target": "T2, 人ETA (内皮素受体A) (human, UniProt P25101 21-427)", "T2 construct": "whole, on cells; The plasmid's ETA construct is not described further; also called CHO-ETA; CHO-ETA-EGFP", "T2 sequence (looked up)": "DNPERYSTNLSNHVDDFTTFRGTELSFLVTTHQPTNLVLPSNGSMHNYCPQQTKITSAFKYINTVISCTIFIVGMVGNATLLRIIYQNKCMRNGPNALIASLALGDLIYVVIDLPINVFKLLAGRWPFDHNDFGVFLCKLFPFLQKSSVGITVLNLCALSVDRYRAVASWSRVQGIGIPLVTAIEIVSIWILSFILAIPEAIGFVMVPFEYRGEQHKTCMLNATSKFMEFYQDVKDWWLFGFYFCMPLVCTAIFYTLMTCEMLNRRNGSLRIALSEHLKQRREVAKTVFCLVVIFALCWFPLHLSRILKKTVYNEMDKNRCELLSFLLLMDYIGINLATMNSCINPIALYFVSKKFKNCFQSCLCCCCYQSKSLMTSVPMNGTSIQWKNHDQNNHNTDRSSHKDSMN", "assay": "flow cytometry (FACS) on CHO-ETA cells, anti-human IgG Fc PE secondary"}}, "data": [{"binder": "αETA(L5H5,SEQ NO ID:19+SEQ NO ID:20)/αCD3(L3H3,SEQ NO ID:15+SEQ NO ID:16)双特异性抗体 (bispecific antibody) chain 1: QVTLKESGPTLVKPTQTLTLTCTFSGFSLTTSGLGVAWIRQPPGKALEWLAHIWSDGDTRYYPALKNRLTITKDTSKNQVVLTMTNMDPVDTATYYCAHMKDDSLYFDNWGQGTLVTVSS chain 2: EIVLTQSPDFQSVTPKEKVTITCRASQNIGTSIHWYQQKPDQSPKLLIKYASKSISGVPSRFSGSGSGTDFTLTINSLEAEDAATYYCQHSYSFPWTFGQGTKVEIK chain 3: EAVVTQEPSLTVSPGGTVTLTCRSSTGAVTTSNYANWVQQKPGQAPRGLIGGTNKRAPWTPARFSGSLLGGKAALTLSGAQPEDEAEYYCALWYSNLWVFGGGTKLTVL chain 4: EVQLVESGGGLVQPGGSLRLSCAASGFTFNTYAMNWVRQAPGKGLEWVGRIRSKYNNYATYYADSVKDRFTISRDDSKNTLYLQMNSLRAEDTAVYYCVRHGNFGNSYVSWFAYWGQGTLVTVSS", "values": [{"measurement": "EC50", "setting": "[1]", "value": 10.7, "unit": "nM"}, {"measurement": "EC50", "setting": "[2]", "value": 3.51, "unit": "nM"}]}]}
